Patent US11628159B2, “Cell-protective compounds and their use” (ETH ZURICH, priority 2017, dated 2023)

Molecular target: T1, GRK2 (Mus musculus, UniProt Q99MK8)
T1 construct: from tissue; host or cells: heart lysate of Tg-RKIP mice
T1 sequence (Q99MK8 1-689): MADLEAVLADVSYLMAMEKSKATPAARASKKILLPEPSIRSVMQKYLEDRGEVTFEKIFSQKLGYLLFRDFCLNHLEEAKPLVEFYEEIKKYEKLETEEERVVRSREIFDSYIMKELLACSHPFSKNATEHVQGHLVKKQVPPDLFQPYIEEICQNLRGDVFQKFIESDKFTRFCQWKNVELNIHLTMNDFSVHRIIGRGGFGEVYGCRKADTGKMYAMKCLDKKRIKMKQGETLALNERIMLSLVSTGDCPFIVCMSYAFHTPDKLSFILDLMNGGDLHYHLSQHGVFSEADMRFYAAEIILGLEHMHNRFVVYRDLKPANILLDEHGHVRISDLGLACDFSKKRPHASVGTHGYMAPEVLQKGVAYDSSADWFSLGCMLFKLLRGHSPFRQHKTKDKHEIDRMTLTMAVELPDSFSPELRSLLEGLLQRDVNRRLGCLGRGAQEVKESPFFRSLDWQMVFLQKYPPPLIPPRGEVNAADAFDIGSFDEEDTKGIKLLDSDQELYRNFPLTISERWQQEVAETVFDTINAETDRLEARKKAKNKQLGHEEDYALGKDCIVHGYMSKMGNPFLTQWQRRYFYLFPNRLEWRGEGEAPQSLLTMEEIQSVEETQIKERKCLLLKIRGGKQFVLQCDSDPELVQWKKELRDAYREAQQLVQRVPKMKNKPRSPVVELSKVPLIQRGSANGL
Assay: Depletion of GRK2 from Tg-RKIP heart lysates by affinity purification of RKIP
Type: binding
Settings: serine-153 phosphorylated transgenic RKIP, n=4
Description: A, Immunoblot detection of serine-153 phosphorylation of RKIP (pS153) in Tg-RKIP and B6 control hearts (n=5 mice/group). B, Removal of RKIP by affinity purification (AP) with immobilized RKIP-specific antibodies depletes the GRK2 protein from Tg-RKIP heart lysates. A control affinity purification with unrelated antibodies did neither deplete RKIP nor GRK2. Upper panels show representative experiments and lower panels show quantitative data evaluation (±s.d., n=4; *, p=0.0286; Mann Whitney Test). C, Isoproterenol-stimulated cAMP response in neonatal cardiomyocytes from Tg-RKIP and Tg-GRK2-K220R mice (n=6; ±s.d.).
The GRK2-inhibitory activity of transgenic RKIP (human RKIP˜PEBP1) was controlled in vivo. The phosphorylation of RKIP on serine-153 switches RKIP from Raf1 inhibition to GRK2 inhibition (Lorenz K, et al., Nature 426, 574-579 (2003)). Substantial serine-153 phosphorylation of RKIP was documented by immunoblot detection in Tg-RKIP hearts (FIG. 7A). […] We determined the GRK2 inhibition-mediated resensitization of the isoproterenol-stimulated cAMP response in neonatal cardiomyocytes as readout for GRK2 inhibition by RKIP and GRK2-K220R, respectively (Abd Alla, J, et al., J. Biol. Chem. 291, 2583-2600 (2016); Kong K C, et al., Biochemistry 47, 9279-9288 (2008)).

GRK2 protein bound and neutralized in Tg-RKIP hearts: 90.4%
B1: RKIP: raf kinase inhibitor protein, a dual-specific GRK2 and Raf kinase inhibitor (protein, UniProt P30086 2-187, looked up)
Phosphatidylethanolamine-bindi …: PVDLSKWSGPLSLQEVDEQPQHPLHVTYAGAAVDELGKVLTPTQVKNRPTSISWDGLDSGKLYTLVLTDPDAPSRKDPKYREWHHFLVVNMKGNDISSGTVLSDYVGSGPPKGTGLHRYVWLVYEQDRPLKCDEPILSNRSGDHRGKFKVASFRKKYELRAPVAGTCYQAEWDDYVPKLYEQLSGK
